Test results reported in US5763571, “Inhibiting protein interactions” (The General Hospital Corporation, dated 1998).
No end group written: not given here.

Target: GST-Raf(1-257) (human)
Test: peptide competition of Ras-GTP / GST-Raf co-precipitation

IC50: 100 µM
Binder: EDSYRKQVVIDGETC (not fully specified (N-terminus, C-terminus)) [Ras 37-51 peptide]
